Patent US20070274981A1 (Eli Lilly, published 2007)

Tests used:
[1] = target: T1, Recombinant FGFR-1(IIIb) (UniProt P11362-19 22-376); experiment: kinetic analysis (BiaCore)
T1 construct: Bought (R&D Systems); also called FGFR-1b; FGFR-(IIIb); not shown: Fc-tag of the recombinant receptor (detected with anti-human Fc)
T1 sequence (looked up): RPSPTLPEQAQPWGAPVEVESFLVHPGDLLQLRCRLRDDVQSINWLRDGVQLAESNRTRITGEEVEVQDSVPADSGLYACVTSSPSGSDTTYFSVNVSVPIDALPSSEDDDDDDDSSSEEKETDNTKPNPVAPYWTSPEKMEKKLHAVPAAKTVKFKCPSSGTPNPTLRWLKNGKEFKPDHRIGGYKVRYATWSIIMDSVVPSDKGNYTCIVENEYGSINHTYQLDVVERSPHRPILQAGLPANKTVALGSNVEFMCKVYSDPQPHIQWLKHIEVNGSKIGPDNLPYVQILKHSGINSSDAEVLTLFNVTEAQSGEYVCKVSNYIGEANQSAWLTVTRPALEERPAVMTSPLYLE

[2] = target: T2, Recombinant FGFR-4 (UniProt P22455 22-369); experiment: BiaCore 3000 biosensor, binding kinetics
T2 construct: Bought (R&D Systems); also called FGFR-4(IIIc)
T2 sequence (looked up): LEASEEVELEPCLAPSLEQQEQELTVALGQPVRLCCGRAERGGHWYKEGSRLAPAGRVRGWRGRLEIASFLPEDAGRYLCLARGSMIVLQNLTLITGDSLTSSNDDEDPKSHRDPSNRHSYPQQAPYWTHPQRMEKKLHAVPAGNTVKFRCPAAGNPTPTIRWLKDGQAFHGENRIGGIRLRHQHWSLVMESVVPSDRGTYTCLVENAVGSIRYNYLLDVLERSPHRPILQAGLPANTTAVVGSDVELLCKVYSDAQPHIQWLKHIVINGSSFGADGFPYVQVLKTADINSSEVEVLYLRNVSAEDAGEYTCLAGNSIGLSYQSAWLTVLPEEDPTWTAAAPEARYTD

[3] = target: T1, Recombinant FGFR-1(IIIb); experiment: BiaCore 3000 biosensor, binding kinetics
[4] = target: T1, Recombinant FGFR-1(IIIb); experiment: ELISA blocking assay: FGFR-1(IIIb) binding to immobilised FGF-1
Protocol: (§1) Recombinant FGFs (R&D systems, Minneapolis, Minn.) were coated on Immulon® 2B microtiter plates (ThermoLab Systems, Franklin, Mass.) at concentrations of 0.5-2 μg/ml for 2 hrs. The plates were then washed with 0.2% Tween20/PBS, and blocked with 5% milk/PBS for 2 hrs before use. Phage or antibody was serially diluted with 5 μg/ml heparin (Sigma, St Louis, Mo.), 5% milk, PBS. Recombinant FGFR-1 (R&D Systems) was then added to a final concentration of 1 μg/ml. […] Plates were then washed 3 times with 0.2% Tween20/PBS. The bound receptors were detected using an anti-human Fc monoclonal antibody coupled with HRP (Pierce Biotechnology Inc., Rockford, Ill.) solution prepared according to supplier's instructions. Data were presented as % inhibition of ligand-receptor binding of the controls.
(§2) The blocking activities to fully active, native FGFR-1 receptor were determined in the cell-based blocking assay.

[5] = target: T1, Recombinant FGFR-1(IIIb); experiment: ELISA blocking assay: FGFR-1(IIIb) binding to immobilised FGF-2
Protocol: as §1, §2

[6] = target: T2, Recombinant FGFR-4; experiment: kinetic analysis (BiaCore)
[7] = target: T1, Recombinant FGFR-1(IIIb); experiment: BiaCore analyses

B1: FR1-H7 (antibody, V domains shown)
VH: EVQLVQSGAEVKKPGASVKVSCKVSGYTFTDYYMHWVQQAPGKGLEWMGLVDPEDGETIYAEKFQGRVTITADTSTDTAYMELSSLRSEDTAVYYCARDDYMDVWGKGTLVTVSS
VL: ETTLTQSPDTLSLSPGEGATLSCRASQSVSGSALAWYQQKPGQAPRLLIYDASSRATGVPDRFSGSGSGADFSLTISRLEPEDFAVYSCQQYGSSPLTFGPGTKVDVKR
notes: also called FR1-H7 antibody
[1]
  Kd: ~0.05 nM
[2]
  Kd: 200 nM
[3]
  Kd: 0.06 nM
[4]
  IC50: ~5 nM
[5]
  IC50: 2 to 5 nM

B2: FR1-A1 (antibody, V domains shown)
VH: QVQLVQSGAEVKKPGSSVKVSCKASGQTFTGYYMHWVRQAPGQGLEWMGRIIPILGIANYAQKFQGRVTITADKSTSTAYMELSSLRSEDTAVYYCARGGDLGGMDVWGQG
VL: EIVLTQSPLSLPVTPGEPASISCRSSQSLRHSNGYNYLDWYLQKPGQSPQLLIYLASNRASGVPDRFSGSGSGTDFTLKISRVEAEDVGVYYCMQALQIPPTFGPGTKVDIKR
notes: also called FR1-A1 antibody
[6]
  Kd: 90 nM

B3: FR1-4H (antibody, V domains shown)
VH: QVQLVEFGPGLVKPSETLSLTCTVSGGSISSYYWSWIRQPPGKGLEWIGYIYYSGSTNYNPSLKSRVAISVDTSKNQFSLKLSSVTAADTAVYYCAREYYYDSSGYYFYAFDIWGQGTTVTVSS
VL: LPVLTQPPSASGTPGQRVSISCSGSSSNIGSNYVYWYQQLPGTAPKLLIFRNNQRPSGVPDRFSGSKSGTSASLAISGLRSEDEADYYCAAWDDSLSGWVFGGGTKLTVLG
notes: Isolated by the same procedure as FR1-H7 and FR1-A1
[7]
  Kd: 1.1 nM
